Experiment: yeast display, Sf9 membrane polyspecificity reagent, FACS + sequencing; frameworks hold sequencing errors
Summary of the method: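 Polyreactivity labels are assigned by the sorting gate from which each nanobody was recovered. The gates were low and high (top ~1%), set on anti-HA fluorescence for expression and streptavidin fluorescence for reagent binding. Before sorting, galactose-induced (36–48 hours) yeast display cells were stained for 1 hour at 4 °C with 10% biotinylated, detergent-solubilized Sf9 membrane reagent.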

Row | Sequence | polyreactivity (PSR sort gate)
1 | QVQLEESGGGLVHAGGSLRLSCAASGSTFGYYTMGWYRQAPRKERELVAAITWSGGSTYYADSVKGRFTISLDNAKNTVYLQMNSLKPEDSAVYYCAADDYWTPFGYWGQGTQVTVSS | low polyreactivity
2 | QVQIVESGAGLVQAGGSLSLSCDASGFIFVWYAMGWYRQAPGKERELVAAISWTGGSTYYADSVKGRFTISRDNAKNTVYLQINSLKPEDTAVYYCAATYEFYPEELDYWGQGTQVTVSS | low polyreactivity
3 | QVQLVESGGGLVQAGGSLRLSCAASGRIFGYNAMGWYRQAPGKERELVAALSWNGGSTYYADSVKGRFTISRDNAKNTVYLQMNSLKPEDTAVYYCNADPSDRRYPHTWTKMGYWGQGTQVTVSS | low polyreactivity
4 | QVQLVESGGGLVQAGGSLRLSCAASGRIFYLYAMGWYRQAPGKERELVATINTSGGITYYADSVKGRFTISRDNAKNTVYLQMNSLKPEDTAVYYCNADWEWLYFYFRPGGYWGQGTQVTVSS | low polyreactivity
5 | QVQLVESGGGLVQAGGSLRLSCAASGRTFYRNAMGWYRQAPGKERELVAAISWSGGRTFYADSVKGRFTISRDNAKNTVYLQMNSLKPEDTAVYYCAKTYTTPGYYRYDYWGQGTQVTVSS | high polyreactivity
6 | QVQLVESGGGLVQAGGSLRLSCAASGYNFRHYVMGWYRQAPGKERELVAAITYSGGSTYYADSVKGRFTISRDNAKNTVYLQMNSLKPEDTAVYYCAARRRRSDPYDFWGQGTQVTVSS | high polyreactivity
7 | QVQLVESGGGLVQAGGSLLLSCAASGFTFDYYAMGWYRQAPGKERELVAAITWSGGSTYYADSVKGRFTISRDNAKNTVYLQMNSLKPEDTAVYYCNAYYYHLYRGSTSYDYWGQGTQVTVSS | low polyreactivity
8 | QVQLVESGGGLVQAGGSLRLSCAASGITFTSYAMGWYRQAPGKERELVAAISSSGGSTYYADSVKGRFTISRDNAKNTVYLQMNRLKPEDTAVFYCNARPRSRSPRVEYDYWGQGTQVNVSS | high polyreactivity
9 | QVQLVESGGGLVQAGGSLRLSCAASGSTFYYYAMGWYRPAPGKERELVAAINYNGGSTHYADSVKGRFTISRDNAKNTVYLQMNSLKPEDTAVYYCAAKYRLSYTHGYWGQGTQVTVSS | low polyreactivity
10 | QVQLVESGGGLVQAGGSLRLSCAASGIFSRYAIGWYRQAPGKERELVAAISSGDSTNYADSVKGRFTISRDNAKNTVYLQMNSLKPEDTAVYYCATERSHLATGQGYYYVQTFYYWGQGTQVTVSS | low polyreactivity
11 | QVQLVESGGGLVQAGGSLRLRCASSGRIFFGYAMGWYRQAPGKERELVASISRGGSTNYADSVKGRFTISRDNAKNTVYLQMHSLKPEDTAVYYCAASRYLQRYGMYYWGQGTQVTVSS | high polyreactivity
12 | QVQLVESGGGLVQAGGSLRLSCAPSRRIFSIYALGSYRQAPGKESELVAAIRWSGGSTYYADSVKGRFTISRDKEKNTVYLQMNSLTPEDTAVYYCNRYYQSYYGWTGPYGYWGQGTQVTVSS | high polyreactivity
13 | QVQLVESGGGLVQAGGSLRLSCAASGYTFRGYAMGWYRQAPGKEREFVAAMNWSDGSTYYADSVKGRFTISRDNPKNTVYLQMNSLKPEDTAVYYCNADQYYRVPDNYWGQGTQVTVSS | low polyreactivity
14 | QVQLVESGGGLVLAGGSLRLSCAASGFIFATYAMGWYRQAPGKERVLVAAISRRGVRTNYADSVKGRFTISRDNAKNTVYLQMNSLKPEDTAVYYSNAQSHYGKIPMYYWGQGTQVTVSS | high polyreactivity
15 | QVQQVESGGGLVQAGGSLRLSSAASGITFRYYAMGWYRQAPGKERELVAAISSTGGSSYYADSVKGRFTISRDNAKNTVYLQMNSLKPEDTAVYYCNTQYNSQYDYWGQGTQVTVSS | high polyreactivity
16 | QVQLVESGGGLVQAGGSLRLSCAASGLTFYSYAMGWYRQAPGKERELVAAISNTGGTNYADSVKGRFTISRDNAKNNVYFQMTSLKPEDTAVYYCNRTFYHYLYRGYGYWGQGTQVTVSS | low polyreactivity
17 | QVQLVESGGALVQAGGSLRLICAASGRTFQKYTMGWYRQAPGKERELVAAISKRGGSTYYADSVKGRFTISRDNAKNTVYLQMNSLKPEDTAVYYCATRVYRSAVSYDYWGQGTQVTVSS | high polyreactivity
18 | QVQLVESGGGLVQAGGSLRLSCASSGSTFVSYVMGWYRQAPGKERELVARITISSGSTRYADSVKGRFTISRDNAKNTVYLQMNSLKPEDTAVSYCAVDAVDAFVFLSWDYDYWGQGTQVTVSS | low polyreactivity
19 | QVQLVESGGGLVQAGGSLRLSCAASGSTFYTNTMGWYRQAPGKERELVADINGSGGSTYYADSVKGRFTISRDNAKNTVYLQMNSLKPEDTAVYYCAAGSWQVAIRYDYWGQGTQVTVSS | low polyreactivity
20 | QVQLVESGGGLVQAGGSLRLSCAASGSTFSPYAMGWYIQAPGKERELVAAIRVRVGGNTYYADSVKGRFTISRDNAKNTVYLQMNSLKPEDTAVYYCAAYSRTLYPDRYYWGQGTQVTVSS | high polyreactivity
21 | QVQLVESGGGLIQAGGSLRLSCAASGSTFANNAMGWYRPAPGKERELVAAISYNGGSTYYADSVKGRFTISRDNAKNTVYLQMNSLKPEDTAVYYCAAYHFRAPSEYDYWGQGTQVTVSS | low polyreactivity
22 | QVQLVESGGGLVQAGGSLRLSCAASGGIFYSNAMGWYRPAPGKERELVAAISSSGGSTYYADSVKGRFTISRDNAKNTVYLQMNSLKPEDTAVYYCAARPTVRPVVRFGYWGQGTQVTVSS | high polyreactivity

Row | Sequence | polyreactivity (PSR sort gate)
23 | QVQLVESGGGLVQAGGSLRLSCAASGSTFKVYAMGWYRQAPGKERELVAAISRSGGRTYYADSVKGRFTISRDNEKNTVYLQMNSLKPEDTAVYYCNSDYTYSQGHYSGSYDYWGQGSQVTVSS | high polyreactivity
24 | QVQLVESGGGLVQAGGSLRLSCAASGSTFGPYAMAWYRQAPGKERELVAAIDKSGGSTYYADSVKGRFTLSRDNAKNTVYLQMNSLKPEDTAVYYCAADLVRYFGYYDYDSWGQGTQVTVSS | low polyreactivity
25 | QVQLVESGGGLDQAGGSLRLICAASGRTFRFNTMGWYRQAPGKERELVATISRRGGSTYYADSVKGRFTISRDNAKNTVYLLMNSLKPEDTAVYYCAVYGGSYRFDYWGQGTQVTVSS | high polyreactivity
26 | QVQLVESGGGLVQAGGSLRLSCAASGGNFRYYAMGWYRQAPGKERELVAAITRGGRTSYADSVKGRFTISRDNAKNTVYLQMNSLKPEDSAVYYCNAKRPYQEHNSYGYWGQGSQVTVSS | high polyreactivity
27 | QVQLVESGGGLVQAGGSLRLSCAASGSIFEGYVMGWYRQAPGKERELVATISFSGGSTYYADSVKGRFTISRDNAKNTVYLQMNSLKPEDTAVYYCNALVYHTKGDYGYWGQGTQVTVSS | low polyreactivity
28 | QVQLVESGGGLVQAGGSLRLSCAASGFIFGIYAMGWYRQAPGKEREFVAAITGSAGSTYYADSVKGRFTISRDNAKNTVYLQMNSLKPEDTAVYYCAAVLRTHRYGGYNYWGQGSQVTVSS | low polyreactivity
29 | QVQLVESGGGLVQAGGSLRLSCAASGLTFNAYAMGWYRQAPGKERELVADITTSDGSTFYADSVKGRFTISRDNAKNTVYLQMNSLKPEDTAVYYCNADAYGWYSGPWFKWLLWYDYWGQGTQVTVSS | low polyreactivity
30 | QVQLVESGGGLVQAGGSLRLSCAASGRTFSYNAMGWYRQAPGKERELVAVISASGGRTNYADSVKGRFTISRDNAKNTVYLQMNSLKPEDTAVYYCNALFGLGVKGYDYWGQGTQVTVSS | low polyreactivity
31 | QDQLVESGGGLVQAGGSLRLSCAASGNNYWTNAMGWYRQAPGKERELVAAISWSGDSTYYADSVKGRFTISRDNAKNTVYLQLNSLKPEDTAVYYCAVLDVYRYRMDYWGQGTQVTVSS | low polyreactivity
32 | QVPMQESGGGLVQADGRLSLSCAASGSIFGYYYMGWYRQAPGKDRELVATINICGITNYADSVKGRFTISRDNAKNTVYLQMNSLKPDATAVYYCAADEYAQRDLGYWGQGPQVTVSS | low polyreactivity
33 | QVQLVESGGGLVQAGGSLRLSCAASGSTFILNAMGWYRQAPGKERELVATISSSDTSTYYADSVKGRFTISRDNANNTVYLQMNSLKPEDTAVYYCNADYYTTSYLQRVYHYGVEYDYWGQGTQVTVSS | low polyreactivity
34 | QVQLLESGGGLVQAGGSLRLSCAASGRTFTSNVMGWYRQAPGKERELVAAISSSGGRTYYADSVKGRFTISRDNAKNTVYLLMNSLKPEDTAVYSCAADGYPEYPRYGYWGQGTQVTVSS | high polyreactivity
35 | QVQLVESGVGLVQAGGSLRLSCAASGYIFYQYAMGWYRQAPGKERELVSTISWRGGSTYYADSVKGRFTISRDNAKNTVYLQMNCLKPEDTAVYYCAARKRPYTVINGMDYWGQGTQVTVSS | low polyreactivity
36 | QVQLVESGGGLVQAGGSLRLSCAASGRIFSAYAMGLYRQAPGKERELVAAITSVGSTKYADSVKGRFTISRDNAKNTVYLQMNSLIPEDTAVYYCAAEYTRSFYIYYRFGYWGQGTQVTVSS | high polyreactivity
37 | QVQLVESGGGLVQAGGSLRLSCAASGFIFAYYAMGRYRQAPGKERELVAAITIDGSTYYADSVKGRFTIHDNAKNTVYLQMNRLKPEDTAVYYCNAGRWVYWQNNFGDYGYWGQGTQVTVSS | low polyreactivity
38 | QVQLVESGGGLVQAGGSLRLSCAASGNIFSSYVMGWYRHAPGKERELVAAISSRGGSTYYADSVKGRFTISRDNAKNTVYLQMNSLKPEDTAVYYCAARYLSWYDWGQGTQVTVSS | high polyreactivity
39 | QVQLVESGGGLVQAGGSLRLSCAAAGITFTVYAMGWYRPAPGKERELVAAISQSGGSTYYADSVKGRFTISRDNAKNTVSLQMNSMKPEDTAVYSCNADTVWVPYRTYIPFDYWGQGTQVTVSS | low polyreactivity
40 | QVQLVESGGGLVQAGGSLRLSCAASGSILSYYVMGWYRPAPGKERELVAAITSDGSTNYADSVKGRFTISRDNAKNTVYLQMNSLKPEDTAVYYCAAVIAWYYGVQDVYYLGLYDYWGQGTQVTVSS | low polyreactivity
41 | QVQLVESGGGLVQAGGSLRLSCAASGSIFSRNAMGWYRQAPGKERELVASMSWRGGSTNYADSVKGRFTISRDNAKNTVYLQMNSLKPEDTAVYYCNAPYRHQPGGGYWGQGTQVTVSS | low polyreactivity
42 | QVQLVESGGGLVQAGGSLRLSCAASGITFETYALGWSRQAPGKERELVASIDYDGTSTYYADSVKGRFTISRDNAKNTVYLQMNSLKPEDTAVYYCNARDLDNYGWDDEEYDYWGQGTQVSVSS | low polyreactivity
43 | QVQLVESGGGLVQAVGRLRLSCAASGSTFAIYAMGWYRQAPGKERELVAAITVSGGSTYYADSVKGRFTISRDNAKNTVYLQMNSLKPEDTAVYYCNADWSGWQGWYNYWGQGTQVTVSS | low polyreactivity
